The values that follow are results of earlier work, collected in article PMC8535836.

One may read the pKd as −log10 of the Kd, conventionally taken in molar units.

pKd: −log10 of the molar value.

In the series the target is Neuroplastin Np65 Ig1 (Rattus norvegicus) (UniProt P97546). Put plainly: Surface Plasmon Resonance.

As to “Neuroplastin Np65 Ig1 (from UniProt P97546)”, the pKd is 6.28.
